Eleven molecules from patent US20200115416A1 (REGENTS OF THE UNIVERSITY OF MINNESOTA, published 2020) can be followed below.

The target in assay [1] is T1, mouse melanocortin-1 receptor (mouse, UniProt Q01727 1-315). As to the kind of experiment: cell-based or functional assay.
Assay [2] addresses T2, mouse melanocortin-5 receptor (mouse, UniProt P41149 1-325). As to the kind of experiment: cell-based or functional assay.
In assay [3] the target is T3, mouse melanocortin-3 receptor (mouse, UniProt P33033 1-323). As to the kind of experiment: cell-based or functional assay.
In assay [4] the target is T1, mouse melanocortin-1 receptor. The assay is described as follows: cell-based or functional assay. The source holds these as a separate data set.
In assay [5] the target is T2, mouse melanocortin-5 receptor. As to the kind of experiment: cell-based or functional assay. This is another data set of the same source.
In assay [6] the target is T4, mouse melanocortin-4 receptor (mouse, UniProt P56450 1-332). As to the kind of experiment: cell-based or functional assay.
Assay [7] deals with T5, human melanocortin-4 receptor (human, UniProt P32245 1-332).
T5 construct: whole, on cells; in the thallium flux assay co-expressed with Kir7.1 (M125R); also called hMC4R; wildtype hMC4R
As to the kind of experiment: displacement of 125I-AGRP, HEK293 cells expressing hMC4R. On the technique in general: In a radioligand displacement assay an active substance lowers the binding of a labelled ligand.
Protocol: (§1) Competitive binding affinity experiments were performed on HEK-293 cells stably expressing the wildtype hMC4R. […] The assay media was carefully aspirated and cells were washed once with assay buffer. Cell were lysed with 500 μL 0.1 M NaOH and 500 μL 1% Triton X-100 for a minimum of 10 min. […] All experiments were performed with duplicate data points and in at least two independent experimental replicates. […] Concentration-response curves and IC₅₀ values were generated and analyzed by the PRISM program (version 4.0. GraphPad Inc.) by a nonlinear regression method. The standard error of the mean (SEM) was derived from the IC₅₀ values from at least two independent experimental replicates.

The target of assay [8] is T5, human melanocortin-4 receptor. As to the kind of experiment: displacement of 125I-NDP-MSH, HEK293 cells expressing hMC4R.
Protocol: as §1
The target of assay [9] is T4, mouse melanocortin-4 receptor. As to the kind of experiment: cell-based or functional assay. The source holds these as a separate data set.
Assay [10] addresses T1, mouse melanocortin-1 receptor. As to the kind of experiment: cell-based or functional assay. The source holds these as a separate data set.
Assay [11] addresses T2, mouse melanocortin-5 receptor. The assay is described as follows: cell-based or functional assay. This is another data set of the same source.
Assay [12] has as its target T3, mouse melanocortin-3 receptor. The assay is described as follows: cell-based or functional assay. The source holds these as a separate data set.
Assay [13] concerns the target T4, mouse melanocortin-4 receptor. As to the kind of experiment: cell-based or functional assay. This is another data set of the same source.
Assay [14] has as its target T3, mouse melanocortin-3 receptor. The assay is described as follows: cell-based or functional assay. This is another data set of the same source.
Assay [15] addresses T5, human melanocortin-4 receptor. The assay is described as follows: cell-based or functional assay.

Like-named read-outs stand apart in the source and are kept apart here. Square brackets hold non-standard residues; d marks the D form. Some results are limits rather than exact numbers.

The term IC50 denotes the concentration that gives 50% inhibition. High values mean a need for much substance, low ones inhibition by little substance.

T1 sequence (Q01727 whole entry): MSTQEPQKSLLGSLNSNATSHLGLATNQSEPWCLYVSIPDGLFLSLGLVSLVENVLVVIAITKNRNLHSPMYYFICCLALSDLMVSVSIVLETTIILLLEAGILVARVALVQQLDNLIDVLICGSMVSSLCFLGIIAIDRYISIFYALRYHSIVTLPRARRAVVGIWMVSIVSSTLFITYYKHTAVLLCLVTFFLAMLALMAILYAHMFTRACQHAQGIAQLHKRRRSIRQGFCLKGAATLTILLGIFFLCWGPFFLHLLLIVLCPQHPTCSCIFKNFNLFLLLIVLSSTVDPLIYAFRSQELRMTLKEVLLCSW
T3 sequence (P33033 whole entry): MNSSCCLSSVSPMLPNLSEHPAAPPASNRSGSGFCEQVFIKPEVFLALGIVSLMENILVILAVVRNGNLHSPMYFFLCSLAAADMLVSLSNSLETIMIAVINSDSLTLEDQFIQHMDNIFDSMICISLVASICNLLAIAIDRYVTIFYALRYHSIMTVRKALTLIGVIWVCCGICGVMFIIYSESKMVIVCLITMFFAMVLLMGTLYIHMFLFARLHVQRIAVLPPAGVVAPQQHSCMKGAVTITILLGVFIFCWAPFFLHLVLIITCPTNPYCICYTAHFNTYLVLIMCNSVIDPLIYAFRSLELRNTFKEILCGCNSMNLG
T4 sequence (P56450 whole entry): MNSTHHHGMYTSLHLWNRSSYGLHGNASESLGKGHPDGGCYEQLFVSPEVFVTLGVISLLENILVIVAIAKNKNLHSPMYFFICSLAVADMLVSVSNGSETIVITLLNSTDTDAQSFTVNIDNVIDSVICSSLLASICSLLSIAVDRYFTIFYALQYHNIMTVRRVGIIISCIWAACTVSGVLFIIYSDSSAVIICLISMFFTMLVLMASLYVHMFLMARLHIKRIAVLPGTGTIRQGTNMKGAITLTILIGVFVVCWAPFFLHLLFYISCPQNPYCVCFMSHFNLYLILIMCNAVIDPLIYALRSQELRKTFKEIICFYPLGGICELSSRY
T2 sequence (P41149 whole entry): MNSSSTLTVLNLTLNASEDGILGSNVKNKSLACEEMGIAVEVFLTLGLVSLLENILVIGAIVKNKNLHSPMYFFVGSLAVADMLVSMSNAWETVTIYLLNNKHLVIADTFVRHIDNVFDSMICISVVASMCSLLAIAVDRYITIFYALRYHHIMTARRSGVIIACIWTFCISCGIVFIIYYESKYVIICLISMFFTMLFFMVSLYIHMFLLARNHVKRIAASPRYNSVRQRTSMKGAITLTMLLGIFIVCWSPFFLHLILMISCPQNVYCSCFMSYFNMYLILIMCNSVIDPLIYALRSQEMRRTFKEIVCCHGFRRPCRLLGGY

In the case of PRFFXAFP (head-to-tail cyclic; DPhe at 3 and 4; Dap at 5; DPro at 8) [c[Pro-Arg-DPhe-DPhe-Dap-Ala-Phe-DPro]], the “agonist EC50 (cAMP AlphaScreen)” value in assay [1] is 700 nM; in assay [2] it was more than 100000 nM; in assay [3], more than 100000 nM. In addition, the “antagonist pA2 (Schild, agonist NDP-MSH)” value in assay [3] was 5.7.
With cyclo(PRFFNAS[dP]) [c[Pro-Arg-Phe-Phe-Asn-Ala-Ser-DPro]], the “% activation at 100 µM (cAMP AlphaScreen)” value (shortened to “% activation at 100 µM”) in [4] turned out to be 35%. The “inverse agonist, % change from basal cAMP at 100 µM” value (from here on “inverse agonist, % change”) in [5] was -55%.
On to PRFFXAFP (head-to-tail cyclic; DPhe at 3; Dap at 5; DPro at 8) [c[Pro-Arg-DPhe-Phe-Dap-Ala-Phe-DPro]], for which the “% maximal NDP-MSH response at 100 µM (cAMP AlphaScreen)” value in assay [6] turned out to be 20%. The “agonist EC50 (cAMP AlphaScreen)” value in assay [1] was 230 nM; in assay [2], more than 100000 nM; in [3] it was more than 100000 nM. The “antagonist pA2 (Schild, agonist NDP-MSH)” value in assay [3] amounted to 5.92.
With cyclo(PRFFDAF[dP]) [c[Pro-Arg-Phe-Phe-Asp-Ala-Phe-DPro]], the results for the IC50 in [7] and in [8] were 1300 nM and 3600 nM, respectively. Moreover, the “agonist EC50 (cAMP AlphaScreen)” value in assay [9], in assay [10] and in assay [12] was more than 100000 nM throughout. For the same molecule, the “antagonist pA2 (Schild, agonist NDP-MSH)” value in assay [9] is 6.79; in assay [12] it was less than 5.5. Also, the “inverse agonist, % change” value in assay [11] is -25%.
Consider cyclo(PRFFEAF[dP]) [c[Pro-Arg-Phe-Phe-Glu-Ala-Phe-DPro]], for which the values for the IC50 in assay [7] and in assay [8] were 1400 nM and 2500 nM, respectively. Besides, the “agonist EC50 (cAMP AlphaScreen)” value in assay [9] was more than 100000 nM; in assay [10], 20500 nM; in assay [12] it was more than 100000 nM. Also, the “antagonist pA2 (Schild, agonist NDP-MSH)” value in assay [9] is 7; in assay [12] it was less than 5.5. Besides, in [11], the “inverse agonist apparent potency” value came to 700 nM. In [11], the “inverse agonist, % decrease from basal cAMP” value was -10%.

B1: c[Pro-Arg-Phe-Phe-Asn-Ala-Asp-DPro] (peptide)
peptide: cyclo(PRFFNAD[dP])
SMILES: C[C@@H]1NC(=O)[C@H](CC(N)=O)NC(=O)[C@H](Cc2ccccc2)NC(=O)[C@H](Cc2ccccc2)NC(=O)[C@H](CCCNC(=N)N)NC(=O)[C@@H]2CCCN2C(=O)[C@H]2CCCN2C(=O)[C@H](CC(=O)O)NC1=O
In the case of B1, the “antagonist pA2 (Schild, agonist NDP-MSH)” value in assay [13] and in assay [14] was less than 5.5 each time. For the same molecule, in [4], the “% activation at 100 µM” value stood at 40%. For the same molecule, the “inverse agonist, % change” value in [5] was -25%.

B2: hAGRP(86-132) (ligand, human, UniProt O00253 86-132, looked up)
chain: RCVRLHESCLGQQVPCCDPCATCYCRFFNAFCYCRKLGTAMNPCSRT
notes: range 86-132; also called C-terminal domain of AGRP
In the case of B2, the IC50 in assay [7] was 12 nM. Also, the entries for the “antagonist pA2 (Schild, agonist NDP-MSH)” value in [9], in [12] and in assay [15] were 8.7, 8.7 and 8.8, respectively. For the same molecule, the “inverse agonist apparent potency (EC50)” value in assay [15] was found to be 2.4 nM. In addition, the “inverse agonist, % decrease from basal signal” value in assay [15] is -35%.
In the case of PRFFXAFP (head-to-tail cyclic; DArg at 2; DPhe at 4; Dap at 5; DPro at 8) [c[Pro-DArg-Phe-DPhe-Dap-Ala-Phe-DPro]], in assay [1], the “agonist EC50 (cAMP AlphaScreen)” value was determined as 450 nM and the “partial agonist efficacy, % of NDP-MSH” value is 70%. In addition, in assay [2], the “inverse agonist, % change” value is -20%. In assay [3], the “agonist EC50 (cAMP AlphaScreen)” value is more than 100000 nM and the “antagonist pA2 (Schild, agonist NDP-MSH)” value came to 5.7.
On to PRFFXAFP (head-to-tail cyclic; DArg at 2; Dap at 5; DPro at 8) [c[Pro-DArg-Phe-Phe-Dap-Ala-Phe-DPro]], for which the “% maximal NDP-MSH response at 100 µM (cAMP AlphaScreen)” value in assay [6], in [1] and in assay [3] was 25% throughout. Moreover, the “agonist EC50 (cAMP AlphaScreen)” value in assay [2] was more than 100000 nM. In addition, in assay [3], the “antagonist pA2 (Schild, agonist NDP-MSH)” value was determined as 5.7.
Turning to cyclo(PRFFNAG[dP]) [c[Pro-Arg-Phe-Phe-Asn-Ala-Gly-DPro]], in assay [4], the “% activation at 100 µM” value amounted to 60%. The “inverse agonist, % change” value in assay [5] was -25%.
PRFFXAFP (head-to-tail cyclic; DArg at 2; DPhe at 3 and 4; Dap at 5; DPro at 8) [c[Pro-DArg-DPhe-DPhe-Dap-Ala-Phe-DPro]]: in [1], the “agonist EC50 (cAMP AlphaScreen)” value was 2200 nM and the “partial agonist efficacy, % of NDP-MSH” value came to 60%. Further, in [2], the “inverse agonist, % change” value was -15%. In [3], the “agonist EC50 (cAMP AlphaScreen)” value was more than 100000 nM and the “antagonist pA2 (Schild, agonist NDP-MSH)” value is less than 5.5.
